How the values were obtained:
[1] = substrate: CC(C)C[C@@H](N)C(=O)O; assay: purified protein; details: 1 mM PMS, 20 mM sodium pyrophosphate, pH 10.0, 25 °C
[2] = substrate: N=C(N)NCCC[C@@H](N)C(=O)O; assay: purified protein; details: 1 mM PMS, 20 mM sodium pyrophosphate, pH 10.0, 25 °C

B1: Pseudomonas aeruginosa D-arginine dehydrogenase (PaDADH) (Pseudomonas aeruginosa PAO1) (protein)
chain: MIEADYLVIGAGIAGASTGYWLSAHGRVVVLEREAQPGYHSTGRSAAHYTVAYGTPQVRALTAASRAFFDNPPAGFCEHPLLSPRPEMVVDFSDDPEELRRQYESGKALVPQMRLLDAEQACSIVPVLRRDKVFGATYDPTGADIDTDALHQGYLRGIRRNQGQVLCNHEALEIRRVDGAWEVRCDAGSYRAAVLVNAAGAWCDAIAGLAGVRPLGLQPKRRSAFIFAPPPGIDCHDWPMLVSLDESFYLKPDAGMLLGSPANADPVEAHDVQPEQLDIATGMYLIEEATTLTIRRPEHTWAGLRSFVADGDLVAGYAANAEGFFWVAAQGGYGIQTSAAMGEASAALIRHQPLPAHLREHGLDEAMLSPRRLSP
Q: How did the Km [1] turn out when B1 was run?
A: Its Km is 6.6 ± 0.5 mM.

Q: And the kcat [1]?
A: Its kcat is 73 ± 3 s⁻¹.

Q: And the kcat/Km [1]?
A: The kcat/Km was 11000 ± 880 M⁻¹ s⁻¹.

Q: What about the Km [2] of the same protein?
A: The Km was 0.033 ± 0.002 mM.

— article PMC10655190, “Targeted Mutation of a Non-catalytic Gating Residue Increases the Rate of Pseudomonas aeruginosaD-Arginine Dehydrogenase Catalytic Turnover” (Journal of Agricultural and Food Chemistry, 2023)
